Reference: paper PMC4861259, “An Interplay of S-Nitrosylation and Metal Ion Binding for Astrocytic S100B Protein” (PLoS ONE, 2016)

Target: the molecule itself
Assay: SEC; Superdex 75 10/300 GL; 200 μl of 100 μM protein loaded, before and after every ITC run, in the ITC buffers (10 mM TES pH 7.2 with 15 mM or 150 mM NaCl, with or without CaCl2)

B1: recombinant human S100B protein, unmodified (S100BSH) (natural protein, UniProt P04271 1-92, looked up)
chain: MSELEKAMVALIDVFHQYSGREGDKHKLKKSELKELINNELSHFLEEIKEQEVVDKVMETLDNDGDGECDFQEFMAFVAMVTTACHEFFEHE
notes: S100B protein, human, recombinant; Non-covalent homodimer; source: E. coli bacterial culture, purified (semi-preparative HPLC, C18)
stoichiometry N: 2

B2: recombinant human S100B protein, S-nitrosylated at Cys84 (S100BSNO) (natural protein, UniProt P04271 1-92, looked up)
chain: B1 chain
modifications: S-nitrosylated cysteine (SNO) at Cys84
notes: S100B protein, human, recombinant, chemically S-nitrosylated at Cys84; Non-covalent homodimer; also called S100BNO; S-nitrosylated S100B; source: E. coli, chemically S-nitrosylated, purified (semi-preparative HPLC, C18)
stoichiometry N: 2
